In the array DNA melting data of Ke et al.:

assay: melting temperature; melt of duplexes; details: sodium 0.0675 M; strand 1 µM

Q: Which Tm does the source give for “CGACGTGCAGGATGTGCTG+CAGCACATGACGCACGTCG ((((((((...((((((((+))))))))...))))))))” here?
A: 47.3 °C

Q: For “CGACGTGCCCGATGTGCTG+CAGCACATGATGCACGTCG ((((((((...((((((((+))))))))...))))))))”, which Tm is on record?
A: 48.9 °C

Q: For “CGACGTGCGACATGTGCTG+CAGCACATGAGGCACGTCG ((((((((..(((((((((+)))))))))..))))))))”, which Tm is on record?
A: 55.3 °C

Q: Which Tm does the source give for “CGACGTGCTGGATGTGCTG+CAGCACATCTTGCACGTCG ((((((((..(((((((((+)))))))))..))))))))” here?
A: 56.6 °C

Q: For “CGACGTGCCTGATGTGCTG+CAGCACATTACGCACGTCG ((((((((.(.((((((((+)))))))).).))))))))”, which Tm is on record?
A: 49 °C

Q: With “CGACGTGCAGGATGTGCTG+CAGCACATACGGCACGTCG ((((((((.(.((((((((+)))))))).).))))))))” as the substance, how does the Tm read?
A: 56.1 °C

Q: Which Tm does the source give for “CGACGTGCGTTATGTGCTG+CAGCACATGTAGCACGTCG ((((((((...((((((((+))))))))...))))))))” here?
A: 53.6 °C

Q: With “CGACGTGCTGAATGTGCTG+CAGCACATAGTGCACGTCG ((((((((...((((((((+))))))))...))))))))” as the substance, how does the Tm read?
A: 45.3 °C

Q: For “CGACGTGCCCGATGTGCTG+CAGCACATTATGCACGTCG ((((((((...((((((((+))))))))...))))))))”, which Tm is on record?
A: 48.4 °C

Q: Which Tm does the source give for “CGACGTGCCCAATGTGCTG+CAGCACATCTGGCACGTCG (((((((((..((((((((+))))))))..)))))))))” here?
A: 53.8 °C

Q: Which Tm does the source give for “CGACGTGCAGCATGTGCTG+CAGCACATTCCGCACGTCG ((((((((.(.((((((((+)))))))).).))))))))” here?
A: 46.4 °C

Q: With “CGACGTGCCCCATGTGCTG+CAGCACATTCTGCACGTCG ((((((((...((((((((+))))))))...))))))))” as the substance, how does the Tm read?
A: 46.9 °C

Q: With “CGACGTGCTGCATGTGCTG+CAGCACATGTAGCACGTCG (((((((((.(((((((((+))))))))).)))))))))” as the substance, how does the Tm read?
A: 60.4 °C

Q: With “CGACGTGCACCATGTGCTG+CAGCACATCGAGCACGTCG ((((((((.(.((((((((+)))))))).).))))))))” as the substance, how does the Tm read?
A: 45.7 °C

Q: For “CGACGTGCTATATGTGCTG+CAGCACATATCGCACGTCG ((((((((.((((((((((+)))))))))).))))))))”, which Tm is on record?
A: 54.9 °C

Q: Which Tm does the source give for “CGACGTGCATTATGTGCTG+CAGCACATCAAGCACGTCG ((((((((.(.((((((((+)))))))).).))))))))” here?
A: 48.1 °C

Q: Which Tm does the source give for “CGACGTGCTACATGTGCTG+CAGCACATTTGGCACGTCG ((((((((.(.((((((((+)))))))).).))))))))” here?
A: 51.1 °C

Q: Which Tm does the source give for “CGACGTGCTCGATGTGCTG+CAGCACATATCGCACGTCG ((((((((...((((((((+))))))))...))))))))” here?
A: 47.8 °C

Q: With “CGACGTGCATGATGTGCTG+CAGCACATGCGGCACGTCG ((((((((...((((((((+))))))))...))))))))” as the substance, how does the Tm read?
A: 48 °C

Q: Which Tm does the source give for “CGACGTGCGAAATGTGCTG+CAGCACATAGCGCACGTCG (((((((((..((((((((+))))))))..)))))))))” here?
A: 55.4 °C

Q: With “CGACGTGCATGATGTGCTG+CAGCACATAGCGCACGTCG ((((((((...((((((((+))))))))...))))))))” as the substance, how does the Tm read?
A: 47.4 °C

Q: Which Tm does the source give for “CGACGTGCATTATGTGCTG+CAGCACATCTCGCACGTCG ((((((((...((((((((+))))))))...))))))))” here?
A: 47.1 °C

Q: With “CGACGTGCAGGATGTGCTG+CAGCACATAGTGCACGTCG (((((((((..((((((((+))))))))..)))))))))” as the substance, how does the Tm read?
A: 50.6 °C

Q: For “CGACGTGCGACATGTGCTG+CAGCACATCCGGCACGTCG ((((((((...((((((((+))))))))...))))))))”, which Tm is on record?
A: 48.9 °C

Q: For “CGACGTGCCGTATGTGCTG+CAGCACATCCTGCACGTCG ((((((((.(.((((((((+)))))))).).))))))))”, which Tm is on record?
A: 49.7 °C

Q: For “CGACGTGCTAAATGTGCTG+CAGCACATGAAGCACGTCG (((((((((..((((((((+))))))))..)))))))))”, which Tm is on record?
A: 54.6 °C

Q: For “CGACGTGCAAGATGTGCTG+CAGCACATCGCGCACGTCG ((((((((..(((((((((+)))))))))..))))))))”, which Tm is on record?
A: 58.4 °C

Q: For “CGACGTGCGAGATGTGCTG+CAGCACATACAGCACGTCG ((((((((...((((((((+))))))))...))))))))”, which Tm is on record?
A: 52.6 °C

Q: With “CGACGTGCGCCATGTGCTG+CAGCACATATTGCACGTCG ((((((((...((((((((+))))))))...))))))))” as the substance, how does the Tm read?
A: 47.3 °C

Q: With “CGACGTGCTGCATGTGCTG+CAGCACATGACGCACGTCG ((((((((..(((((((((+)))))))))..))))))))” as the substance, how does the Tm read?
A: 52.9 °C

Q: With “CGACGTGCCCAATGTGCTG+CAGCACATAGTGCACGTCG ((((((((.(.((((((((+)))))))).).))))))))” as the substance, how does the Tm read?
A: 46.2 °C

Q: With “CGACGTGCAGAATGTGCTG+CAGCACATAGGGCACGTCG ((((((((...((((((((+))))))))...))))))))” as the substance, how does the Tm read?
A: 49.2 °C

Q: Which Tm does the source give for “CGACGTGCGCAATGTGCTG+CAGCACATGGCGCACGTCG ((((((((((.((((((((+)))))))).))))))))))” here?
A: 63 °C

Q: Which Tm does the source give for “CGACGTGCTTGATGTGCTG+CAGCACATCGGGCACGTCG ((((((((..(((((((((+)))))))))..))))))))” here?
A: 56.8 °C

Q: For “CGACGTGCATCATGTGCTG+CAGCACATCGAGCACGTCG ((((((((...((((((((+))))))))...))))))))”, which Tm is on record?
A: 48.9 °C

Q: Which Tm does the source give for “CGACGTGCGGAATGTGCTG+CAGCACATGGAGCACGTCG ((((((((...((((((((+))))))))...))))))))” here?
A: 62.8 °C
